Laboratory results taken from paper PMC9101030, “Myo5b Transports Fibronectin-Containing Vesicles and Facilitates FN1 Secretion from Human Pleural Mesothelial Cells” (International Journal of Molecular Sciences, 2022).

Target: T1, Flag-Rab11b (full length) (human, UniProt Q15907 1-218)
T1 construct: human Rab11b, full length cDNA in a modified pFastbac HT; the nucleotide state is told by the assay; also called Rab11b-GTPγS; Rab11b-GDPβS; source: Sf9, baculovirus, purified (Ni-NTA); not shown: FLAG, N-terminal, kept
T1 sequence (looked up): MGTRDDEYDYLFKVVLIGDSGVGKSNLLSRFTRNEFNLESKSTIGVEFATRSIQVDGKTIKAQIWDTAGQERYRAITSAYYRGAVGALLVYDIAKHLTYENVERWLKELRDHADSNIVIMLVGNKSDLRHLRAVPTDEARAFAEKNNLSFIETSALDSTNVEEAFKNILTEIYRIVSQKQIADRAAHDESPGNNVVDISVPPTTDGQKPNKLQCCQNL
Assay: pull-down; GST fusion on Glutathione Sepharose 4B; Flag-Rab11b pre-treated with 5-fold excess GTPγS (30 min, 37 °C); 10 µM Rab11b, 2.5 µM Myo5b Tail, 20 µM GTPγS, 20 mM Tris-HCl pH 7.5, 150 mM NaCl, 1 mM MgCl2, 1 mM EGTA, 1 mM DTT, 0.05% Tween, 1% BSA, 4 °C, 1 h; anti-flag Western blot
Conditions: both partners purified

B1: GST-Rab11FIP3 Rab binding domain (694-756 a.a.) (domain or fragment, human, UniProt O75154 694-756, looked up)
chain: QGAKSLFSTAFSESLAAEISSVSRDELMEAIQKQEEINFRLQDYIDRIIVAIMETNPSILEVK
notes: Cloned in pET-30a with GST at the N-terminus and 6xHis at the C-terminus; also called GST-FIP3 RBD; GST-FIP3-RBD; source: E. coli BL21 (DE3), purified (Ni-NTA); not shown: GST, N-terminal, kept
B1: binds.
